From IntAct's records for PubMed 31515488

B1: Keratin, type II cytoskeletal 79 (Homo sapiens), Q5XKE5 (parent)
chain: MRSSVSRQTYSTKGGFSSNSASGGSGSQARTSFSSVTVSRSSGSGGGAHCGPGTGGFGSRSLYNLGGHKSISVSVAGGALLGRALGGFGFGSRAFMGQGAGRQTFGPACPPGGIQEVTVNQSLLTPLHVEIDPEIQRVRTQEREQIKTLNNKFASFIDKVRFLEQQNKVLETKWALLQEQGQNLGVTRNNLEPLFEAYLGSMRSTLDRLQSERGRLDSELRNVQDLVEDFKNKYEDEINKHTAAENEFVVLKKDVDAAYMGRMDLHGKVGTLTQEIDFLQQLYEMELSQVQTHVSNTNVVLSMDNNRNLDLDSIIAEVKAQYELIAQRSRAEAEAWYQTKYEELQVTAGKHGDNLRDTKNEIAELTRTIQRLQGEADAAKKQCQQLQTAIAEAEQRGELALKDAQKKLGDLDVALHQAKEDLTRLLRDYQELMNVKLALDVEIATYRKLLESEESRMSGECPSAVSISVTGNSTTVCGGGAASFGGGISLGGSGGATKGGFSTNVGYSTVKGGPVSAGTSILRKTTTVKTSSQRY
partner: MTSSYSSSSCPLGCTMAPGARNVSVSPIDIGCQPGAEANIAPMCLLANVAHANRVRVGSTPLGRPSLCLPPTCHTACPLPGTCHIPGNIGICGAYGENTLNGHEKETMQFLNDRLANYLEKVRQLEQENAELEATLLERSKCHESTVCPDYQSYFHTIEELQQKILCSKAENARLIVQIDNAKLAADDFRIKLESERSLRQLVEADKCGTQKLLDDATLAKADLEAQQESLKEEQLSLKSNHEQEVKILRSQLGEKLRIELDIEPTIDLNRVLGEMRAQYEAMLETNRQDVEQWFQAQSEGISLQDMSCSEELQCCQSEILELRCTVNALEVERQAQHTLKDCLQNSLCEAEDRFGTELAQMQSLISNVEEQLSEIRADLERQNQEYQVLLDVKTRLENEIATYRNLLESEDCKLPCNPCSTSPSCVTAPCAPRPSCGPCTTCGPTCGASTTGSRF
B2: Actin-associated protein FAM107A (Homo sapiens), O95990 (parent)
chain: MYSEIQRERADIGGLMARPEYREWNPELIKPKKLLNPVKASRSHQELHRELLMNHRRGLGVDSKPELQRVLEHRRRNQLIKKKKEELEAKRLQCPFEQELLRRQQRLNQLEKPPEKEEDHAPEFIKVRENLRRIATLTSEEREL
B3: Ornithine decarboxylase antizyme 3 (Homo sapiens), Q9UMX2 (parent)
chain: MPCKRCRPSVYSLSYIKRGKTRNYLYPIWSPYAYYLYCYKYRITLREKMLPRCYKSITYKEEEDLTLQPRSCLQCSESLVGLQEGKSTEQGNHDQLKELYSAGNLTVLATDPLLHQDPVQLDFHFRLTSQTSAHWHGLLCDRRLFLDIPYQALDQGNRESLTATLEYVEEKTNVDSVFVNFQNDRNDRGALLRAFSYMGFEVVRPDHPALPPLDNVIFMVYPLERDVGHLPSEPP
partner: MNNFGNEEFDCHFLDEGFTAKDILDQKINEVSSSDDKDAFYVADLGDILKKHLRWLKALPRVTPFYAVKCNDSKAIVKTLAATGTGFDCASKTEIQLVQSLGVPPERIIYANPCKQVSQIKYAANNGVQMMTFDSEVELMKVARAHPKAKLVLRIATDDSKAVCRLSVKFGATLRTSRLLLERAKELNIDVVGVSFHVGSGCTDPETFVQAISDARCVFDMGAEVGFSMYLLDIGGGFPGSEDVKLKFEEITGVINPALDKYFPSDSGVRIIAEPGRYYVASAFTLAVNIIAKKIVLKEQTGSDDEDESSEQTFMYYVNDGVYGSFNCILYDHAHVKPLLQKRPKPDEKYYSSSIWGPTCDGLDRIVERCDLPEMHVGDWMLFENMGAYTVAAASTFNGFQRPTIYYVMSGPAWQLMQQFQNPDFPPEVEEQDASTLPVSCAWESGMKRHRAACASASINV
B4: Protein BANP (Homo sapiens), Q8N9N5-2 (parent)
chain: MMSEHDLADVVQIAVEDLSPDHPVVLENHVVTDEDEPALKRQRLEINCQDPSIKSFLYSINQTICLRLDSIEAKLQALEATCKSLEEKLDLVTNKQHSPIQVPMVAGSPLGATQTCNKVRCAVPGRRQNTIVVKVPGQEDSHHEDGESGSEASDSVSSCGQAGSQSIGSNVTLITLNSEEDYPNGTWLGDENNPEMRVRCAIIPSDMLHISTNCRTAEKMALTLLDYLFHREVQAVSNLSGQGKHGKKQLDPLTIYGIRCHLFYKFGITESDWYRIKQSIDSKCRTAWRRKQRGQSLAVKSFSRRTPNSSSYCPSEPMMSTPPPASELPQPQPQPQALHYALANAQQVQIHQIGEDGQVQVIPQGHLHIAQVPQGEQVQITQDSEGNLQIHHVGQDGQVLQGAQLIAVASSDPAAAGVDGSPLQGSDIQVQYVQLAPVSDHTAGAQTAEALQPTLQPEMQLEHGAIQIQ
partner: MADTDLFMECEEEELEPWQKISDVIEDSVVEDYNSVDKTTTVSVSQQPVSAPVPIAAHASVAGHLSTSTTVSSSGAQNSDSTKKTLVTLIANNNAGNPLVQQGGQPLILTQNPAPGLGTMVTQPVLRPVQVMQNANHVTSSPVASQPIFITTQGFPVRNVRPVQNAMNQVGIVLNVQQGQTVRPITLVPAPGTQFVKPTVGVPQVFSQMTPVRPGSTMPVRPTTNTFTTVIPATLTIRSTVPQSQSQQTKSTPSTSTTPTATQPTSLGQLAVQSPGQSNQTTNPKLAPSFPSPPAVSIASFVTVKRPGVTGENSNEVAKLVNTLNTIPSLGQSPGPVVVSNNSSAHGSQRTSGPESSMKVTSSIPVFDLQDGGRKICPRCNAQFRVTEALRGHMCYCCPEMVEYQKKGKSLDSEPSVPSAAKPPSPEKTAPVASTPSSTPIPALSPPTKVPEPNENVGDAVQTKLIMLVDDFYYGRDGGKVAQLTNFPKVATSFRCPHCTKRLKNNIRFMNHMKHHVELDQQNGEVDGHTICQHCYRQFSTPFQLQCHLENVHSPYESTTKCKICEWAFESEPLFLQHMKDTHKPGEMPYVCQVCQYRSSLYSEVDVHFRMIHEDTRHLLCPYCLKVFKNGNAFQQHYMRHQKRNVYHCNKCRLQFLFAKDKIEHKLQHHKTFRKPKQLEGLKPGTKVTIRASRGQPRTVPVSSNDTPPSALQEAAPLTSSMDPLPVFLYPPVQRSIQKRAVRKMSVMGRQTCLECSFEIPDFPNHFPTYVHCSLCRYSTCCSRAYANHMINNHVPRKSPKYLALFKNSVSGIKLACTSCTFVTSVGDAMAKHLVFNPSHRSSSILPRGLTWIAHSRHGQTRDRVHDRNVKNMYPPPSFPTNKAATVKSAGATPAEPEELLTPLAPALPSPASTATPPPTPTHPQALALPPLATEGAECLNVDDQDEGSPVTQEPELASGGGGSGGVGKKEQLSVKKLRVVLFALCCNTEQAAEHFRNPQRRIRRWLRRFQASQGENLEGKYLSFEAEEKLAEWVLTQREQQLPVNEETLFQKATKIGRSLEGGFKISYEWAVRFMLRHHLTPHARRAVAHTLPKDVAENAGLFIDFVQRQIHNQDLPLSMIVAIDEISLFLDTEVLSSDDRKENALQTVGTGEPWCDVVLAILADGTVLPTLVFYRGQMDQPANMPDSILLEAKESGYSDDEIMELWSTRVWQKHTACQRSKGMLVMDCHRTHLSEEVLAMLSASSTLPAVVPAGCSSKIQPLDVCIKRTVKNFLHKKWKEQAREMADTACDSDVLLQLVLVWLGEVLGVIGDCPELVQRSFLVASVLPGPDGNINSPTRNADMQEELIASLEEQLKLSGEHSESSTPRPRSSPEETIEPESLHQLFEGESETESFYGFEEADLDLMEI

Variants of: B1
Conditions: with krt38_human KRT38, O76015

effect of a mutation on the interaction | Variant
with no effect | MRSSVSRQTYSTKGGFSSNSASGGSGSQARTSFSSVTVSRSSGSGGGAHCGPGTGGFGSRSLYNLGGHKSISVSVAGGALLGRALGGFGFGSRAFMGQGAGRQTFGPACPPGGIQEVTVNQSLLTPLHVEIDPEIQRVRTQEREQIKTLNNKFASFIDKVRFLEQQNKVLETKWALLQEQGQNLGVTRNNLEPLFEAYLGSMRSTLDRLQSERGRLYSELRNVQDLVEDFKNKYEDEINKHTAAENEFVVLKKDVDAAYMGRMDLHGKVGTLTQEIDFLQQLYEMELSQVQTHVSNTNVVLSMDNNRNLDLDSIIAEVKAQYELIAQRSRAEAEAWYQTKYEELQVTAGKHGDNLRDTKNEIAELTRTIQRLQGEADAAKKQCQQLQTAIAEAEQRGELALKDAQKKLGDLDVALHQAKEDLTRLLRDYQELMNVKLALDVEIATYRKLLESEESRMSGECPSAVSISVTGNSTTVCGGGAASFGGGISLGGSGGATKGGFSTNVGYSTVKGGPVSAGTSILRKTTTVKTSSQRY [D217Y]
with no effect | MRSSVSRQTYSTKGGFSSNSASGGSGSQARTSFSSVTVSRSSGSGGGAHCGPGTGGFGSRSLYNLGGHKSISVSVAGGALLGRALEGFGFGSRAFMGQGAGRQTFGPACPPGGIQEVTVNQSLLTPLHVEIDPEIQRVRTQEREQIKTLNNKFASFIDKVRFLEQQNKVLETKWALLQEQGQNLGVTRNNLEPLFEAYLGSMRSTLDRLQSERGRLDSELRNVQDLVEDFKNKYEDEINKHTAAENEFVVLKKDVDAAYMGRMDLHGKVGTLTQEIDFLQQLYEMELSQVQTHVSNTNVVLSMDNNRNLDLDSIIAEVKAQYELIAQRSRAEAEAWYQTKYEELQVTAGKHGDNLRDTKNEIAELTRTIQRLQGEADAAKKQCQQLQTAIAEAEQRGELALKDAQKKLGDLDVALHQAKEDLTRLLRDYQELMNVKLALDVEIATYRKLLESEESRMSGECPSAVSISVTGNSTTVCGGGAASFGGGISLGGSGGATKGGFSTNVGYSTVKGGPVSAGTSILRKTTTVKTSSQRY [G86E]

Variants of: B2
Conditions: with cc136_human CCDC136, Q96JN2
cc136_human CCDC136, Q96JN2, sequence (Q96JN2 whole entry): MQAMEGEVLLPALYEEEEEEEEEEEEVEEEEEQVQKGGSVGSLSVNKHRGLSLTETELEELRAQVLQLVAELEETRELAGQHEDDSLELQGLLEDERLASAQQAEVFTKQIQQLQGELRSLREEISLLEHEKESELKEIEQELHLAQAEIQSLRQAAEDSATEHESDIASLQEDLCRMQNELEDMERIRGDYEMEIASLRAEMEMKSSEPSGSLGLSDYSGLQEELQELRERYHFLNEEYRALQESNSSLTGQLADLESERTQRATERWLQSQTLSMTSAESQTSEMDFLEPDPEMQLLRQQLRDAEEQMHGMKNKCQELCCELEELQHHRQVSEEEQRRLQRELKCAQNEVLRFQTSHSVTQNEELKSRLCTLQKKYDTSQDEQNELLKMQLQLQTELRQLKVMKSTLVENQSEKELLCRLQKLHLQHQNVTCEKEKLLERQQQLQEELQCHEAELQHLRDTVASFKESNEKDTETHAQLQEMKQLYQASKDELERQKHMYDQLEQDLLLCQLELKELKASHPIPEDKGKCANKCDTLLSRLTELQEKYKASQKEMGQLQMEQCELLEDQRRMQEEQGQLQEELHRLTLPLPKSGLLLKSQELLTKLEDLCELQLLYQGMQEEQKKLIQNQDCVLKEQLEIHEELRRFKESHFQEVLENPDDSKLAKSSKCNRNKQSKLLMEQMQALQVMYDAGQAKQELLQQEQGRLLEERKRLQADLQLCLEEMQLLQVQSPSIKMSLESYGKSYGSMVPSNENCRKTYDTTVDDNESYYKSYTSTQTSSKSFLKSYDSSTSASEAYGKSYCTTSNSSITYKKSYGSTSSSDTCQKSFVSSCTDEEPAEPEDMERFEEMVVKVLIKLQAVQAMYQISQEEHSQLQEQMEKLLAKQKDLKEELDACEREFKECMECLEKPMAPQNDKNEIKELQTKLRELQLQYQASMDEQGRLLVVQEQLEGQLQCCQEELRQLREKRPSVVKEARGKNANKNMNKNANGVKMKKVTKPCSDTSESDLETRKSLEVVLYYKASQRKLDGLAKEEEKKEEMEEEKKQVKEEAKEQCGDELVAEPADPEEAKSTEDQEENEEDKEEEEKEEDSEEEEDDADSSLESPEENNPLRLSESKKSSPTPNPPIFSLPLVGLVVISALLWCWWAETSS

effect of a mutation on the interaction | Variant
with no effect | MYSEIQRERADIGGLMARPEYREWNPELIKPKKLLNPVKASRSHQELHRELLMNHRRGLGVDRKPELQRVLEHRRRNQLIKKKKEELEAKRLQCPFEQELLRRQQRLNQLEKPPEKEEDHAPEFIKVRENLRRIATLTSEEREL [S63R]
disrupting interaction strength | MYSEIQRERADIGGLMARPEYREWNPELIKPKKLLNPVKASRSHQELHRELLMNHRRGLGVDSKPELQRVLEHRRRNQLIKKKKEELEAKRLQCPFEQELLRRQQRLNQLEKPPEKEEDHAPEFIKVRENLRRIATLTSEQREL [E141Q]

Variants of: B2
Conditions: with traf2_human TRAF2, Q12933

effect of a mutation on the interaction | Variant
with no effect | MYSEIQRERADIGGLMARPEYREWNPELIKPKKLLNPVKASRSHQELHRELLMNHRRGLGVDRKPELQRVLEHRRRNQLIKKKKEELEAKRLQCPFEQELLRRQQRLNQLEKPPEKEEDHAPEFIKVRENLRRIATLTSEEREL [S63R]
disrupting interaction strength | MYSEIQRERADIGGLMARPEYREWNPELIKPKKLLNPVKASRSHQELHRELLMNHRRGLGVDSKPELQRVLEHRRRNQLIKKKKEELEAKRLQCPFEQELLRRQQRLNQLEKPPEKEEDHAPEFIKVRENLRRIATLTSEQREL [E141Q]

Variants of: B3
Conditions: with dcor_human ODC1, P11926

effect of a mutation on the interaction | Variant
disrupting interaction strength | MPCKRCRPSVYSLSYIKRGKTRNYLYPIWSPYAYYLYCYKYRITLREKMLPRCYKSITYKEEEDLTLQPRSCLQCSESLVGLQEGKSTEQGNHDQLKELYSAGNLTVLATDPLLHQDPVQLDFHFRLTSQTSAHWHGLLCDRRLFLDIPYQALDQGNRESLTATLEYVEEKTNVDSVFVNFQNDRNDRGALLQAFSYMGFEVVRPDHPALPPLDNVIFMVYPLERDVGHLPSEPP [R193Q]
disrupting interaction strength | MPCKRCRPSVYSLSYIKRGKTRNYLYPIWSPYAYYLYCYKYRITLREKMLPRCYKSITYKEEEDLTLQPRSCLQCSESLVGLQEGKSTEQGNHDQLKELYSAGNLTVLATDPLLHQDPVQLDFHFRLTSQTSAHWHGLLCDRRLFLDIPYQALDQGNRESLTATLEYVEEKTNADSVFVNFQNDRNDRGALLRAFSYMGFEVVRPDHPALPPLDNVIFMVYPLERDVGHLPSEPP [V174A]

Variants of: B4
Conditions: with pogz_human POGZ

effect of a mutation on the interaction | Variant
with no effect | MMSEHDLADVVQIAVEDLSPDHPVVLENHVVTDEDEPALKRQRLEINCQDPSIKSFLYSINQTICLRLDSIEAKLQALEATCKSLEEKLDLVTNKQHSPIQVPMVAGSPLGATQTCNKVRCAVPGRRQNTIVVKVPGQEDSHHEDGESGSEASDSVSSCGQVGSQSIGSNVTLITLNSEEDYPNGTWLGDENNPEMRVRCAIIPSDMLHISTNCRTAEKMALTLLDYLFHREVQAVSNLSGQGKHGKKQLDPLTIYGIRCHLFYKFGITESDWYRIKQSIDSKCRTAWRRKQRGQSLAVKSFSRRTPNSSSYCPSEPMMSTPPPASELPQPQPQPQALHYALANAQQVQIHQIGEDGQVQVIPQGHLHIAQVPQGEQVQITQDSEGNLQIHHVGQDGQVLQGAQLIAVASSDPAAAGVDGSPLQGSDIQVQYVQLAPVSDHTAGAQTAEALQPTLQPEMQLEHGAIQIQ [A162V]
